What was measured:
rat trkC = rat trkC (rat, UniProt Q03351 32-429, limits assumed); test: BIAcore (SPR); format not stated; rat trkC
human trkC [1] = biological target: T1, human trkC (human, UniProt Q16288 32-429, limits assumed); test: BIAcore (SPR); format not stated; human trkC
T1 construct: also called htrkC

human trkC [2] = biological target: T1, human trkC; test: BIAcore (SPR); format not stated

B1: humanized anti-trkC agonist antibody A5 (antibody, V domains shown)
VH: QVQLVQSGAEVKKPGASVKVSCKASGYTFTSYRIHWVRQAPGQGLEWMGEIYPSNARTNYNEKFKSRVTMTRDTSTSTVYMELSSLRSEDTAVYYCARKYYYGNTRRSWYFDVWGQGTTVTVS
VL: DIQMTQSPSSLSASVGDRVTITCRASESIDNYGISFLAWYQQKPGKAPKLLIYAASNRGSGVPSRFSGSGSGTDFTFTISSLQPEDIATYYCQQSKTVPRTFGQGTKLEIKR
Kd (rat trkC): ~19 nM | Kd (human trkC [1]): ~0.28 nM

B2: mouse anti-trkC agonist monoclonal antibody 2256 (antibody, V domains shown)
VH: QVQLQQPGAELVKPGASVKLSCKASGYTFTSYWMHWVKQRPGQGLEWIGEIYPSNGRTNYNEKFKSKATLTVDKSSSTAYMQLSSLTSEDSAVYYCARKYYYGNSYRSWYFDVWGAGTTLTVS
VL: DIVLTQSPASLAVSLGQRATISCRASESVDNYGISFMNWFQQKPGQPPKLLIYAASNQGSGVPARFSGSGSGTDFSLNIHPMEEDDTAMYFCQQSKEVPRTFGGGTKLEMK
Kd (human trkC [2]): ~40 nM
